Positions count from the first letter of the chain named. Where “and” joins values, the source holds several entries; their conditions need not be identical. Equal values may be shown once. Values belong to the binder of their own block, whether it stands above or below them.
Columns and labels:
[1] = biological target: T1, cynomolgus monkey IL-13 (cynomolgus monkey, UniProt Q0PW92 19-132); test: ELISA: competition with biotinylated human IL-13 for binding to IL13-0001
T1 construct: also called cy IL-13; cyno IL-13; not shown: N-terminal FLAG tag of the Pfizer-made protein

[2] = biological target: T2, mouse IL-13 (mouse, UniProt P20109 26-131, limits assumed); test: as above
T2 construct: also called mu IL-13
T2 sequence (looked up): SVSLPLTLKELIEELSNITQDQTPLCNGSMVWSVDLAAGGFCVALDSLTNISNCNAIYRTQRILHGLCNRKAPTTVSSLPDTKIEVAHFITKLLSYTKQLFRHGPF
Source text: (§1) Recombinant human, mouse, rat, and dog IL 13 were purchased from R&D Systems (Minneapolis, MN). Recombinant sheep and rabbit IL-13 were produced by Pfizer Global Biotechnologies (PGBT, Cambridge, MA). Recombinant cynomolgus monkey IL 13 was purchased from Sino Biological (Beijing, China).

[3] = biological target: T3, dog IL-13 (dog, UniProt Q9N0W9 19-131, limits assumed); test: as above
T3 sequence (looked up): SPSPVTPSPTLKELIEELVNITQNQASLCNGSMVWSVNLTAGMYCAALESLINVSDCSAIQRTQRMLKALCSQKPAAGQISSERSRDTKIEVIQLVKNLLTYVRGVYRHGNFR
Source text: as §1

[4] = biological target: T4, human IL-13 (human, UniProt P35225 35-146); test: cell-based or functional assay
[5] = biological target: T4, human IL-13; test: cell-based or functional assay; remark: listed apart in the source
[6] = biological target: T4, human IL-13; test: SPR 37°C, antibody captured by anti-human IgG, human IL-13 1.56-50 nM
Procedure: The affinity values (KD) were determined using Surface Plasmon Resonance (SPR) for 10 lead variants identified from bioassay screening.

[7] = biological target: T5, recombinant mouse IL-13 (mouse, UniProt P20109 26-131, limits assumed); test: competition ELISA: test species IL-13 against biotinylated human IL-13 for binding to IL13-0001
T5 sequence (looked up): T2 sequence (looked up)
Source text: as §1

[8] = biological target: T6, recombinant cynomolgus monkey IL-13 (cynomolgus monkey, UniProt Q0PW92 19-132); test: as above
T6 construct: also called Cyno IL-13
Source text: as §1

[9] = biological target: T7, recombinant dog IL-13 (dog, UniProt Q9N0W9 19-131, limits assumed); test: as above
T7 sequence (looked up): T3 sequence (looked up)
Source text: as §1

[10] = biological target: T8, recombinant human IL-13 (human, UniProt P35225 35-146); test: cell-based or functional assay
[11] = biological target: T8, recombinant human IL-13; test: cell-based or functional assay; remark: listed apart in the source
[12] = biological target: T8, recombinant human IL-13; test: cell-based or functional assay; remark: listed apart in the source
[13] = biological target: native human IL-13 (human, UniProt P35225 35-146, limits assumed); test: cell-based or functional assay
[14] = biological target: T8, recombinant human IL-13; test: cell-based or functional assay; remark: listed apart in the source
[15] = biological target: T9, recombinant human IL-4 (human, UniProt P05112 25-153); test: cell-based or functional assay
T9 sequence (looked up): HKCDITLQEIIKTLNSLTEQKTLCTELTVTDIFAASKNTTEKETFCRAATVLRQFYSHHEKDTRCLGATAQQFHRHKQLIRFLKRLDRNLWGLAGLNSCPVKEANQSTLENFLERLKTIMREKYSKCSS

[16] = biological target: T10, recombinant rabbit IL-4 (rabbit, UniProt Q9MZR8 25-147, limits assumed); test: competition ELISA: test species IL-4 against biotinylated human IL-4 for binding to IL4-1305
T10 sequence (looked up): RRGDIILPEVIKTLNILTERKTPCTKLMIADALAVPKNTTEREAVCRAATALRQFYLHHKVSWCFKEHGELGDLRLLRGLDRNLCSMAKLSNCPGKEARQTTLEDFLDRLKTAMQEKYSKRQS
Procedure: (§2) Recombinant human, mouse, rat, dog, and rabbit IL 4 were purchased from R&D Systems (Minneapolis, MN). Recombinant cynomolgus monkey and sheep IL-4 were prepared by Pfizer, Cambridge, MA).

[17] = biological target: T11, recombinant rat IL-4 (rat, UniProt P20096 25-147, limits assumed); test: as above
T11 sequence (looked up): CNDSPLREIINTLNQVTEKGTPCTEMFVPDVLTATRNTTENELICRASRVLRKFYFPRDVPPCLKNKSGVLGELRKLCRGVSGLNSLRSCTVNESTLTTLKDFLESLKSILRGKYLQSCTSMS
Procedure: as §2

[18] = biological target: T12, recombinant dog IL-4 (dog, UniProt O77762 25-132); test: as above
T12 sequence (looked up): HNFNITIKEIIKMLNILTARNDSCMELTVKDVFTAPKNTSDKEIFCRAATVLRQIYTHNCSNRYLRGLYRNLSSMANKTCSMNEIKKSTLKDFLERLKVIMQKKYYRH
Procedure: as §2

[19] = biological target: T13, recombinant cynomolgus monkey IL-4 (cynomolgus monkey, UniProt P79339 25-153); test: as above
T13 construct: also called Cyno IL-4
T13 sequence (looked up): T9 sequence (looked up) with E26K, V29I, F33L
Procedure: as §2

[20] = biological target: T14, recombinant mouse IL-4 (mouse, UniProt P07750 23-140); test: as above
T14 sequence (looked up): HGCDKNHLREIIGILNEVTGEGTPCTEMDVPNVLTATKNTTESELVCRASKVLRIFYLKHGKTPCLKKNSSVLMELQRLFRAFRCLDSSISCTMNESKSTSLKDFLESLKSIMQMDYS
Procedure: as §2

[21] = biological target: T15, recombinant sheep IL-4 (sheep, UniProt P30368 25-135, limits assumed); test: as above
T15 sequence (looked up): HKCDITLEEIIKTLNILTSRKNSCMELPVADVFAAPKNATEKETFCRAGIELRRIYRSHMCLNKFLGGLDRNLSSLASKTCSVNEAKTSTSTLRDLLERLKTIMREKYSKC
Procedure: as §2

[22] = biological target: T16, cynomolgus monkey IL-4 (cynomolgus monkey, UniProt P79339 25-153); test: ELISA: competition with biotinylated human IL-4 for binding to IL4-1305
T16 construct: mature; also called cy IL-4; cyno IL-4
T16 sequence (looked up): T9 sequence (looked up) with E26K, V29I, F33L
Procedure: as §2

[23] = biological target: T17, mouse IL-4 (mouse, UniProt P07750 23-140); test: as above
T17 construct: also called mu IL-4
T17 sequence (looked up): T14 sequence (looked up)
Procedure: as §2

[24] = biological target: T18, rat IL-4 (rat, UniProt P20096 25-147, limits assumed); test: as above
T18 construct: also called rt IL-4
T18 sequence (looked up): T11 sequence (looked up)
Procedure: as §2

[25] = biological target: T19, sheep IL-4 (sheep, UniProt P30368 25-135, limits assumed); test: as above
T19 sequence (looked up): T15 sequence (looked up)
Procedure: as §2

[26] = biological target: T20, dog IL-4 (dog, UniProt O77762 25-132); test: as above
T20 sequence (looked up): T12 sequence (looked up)
Procedure: as §2

[27] = biological target: T21, rabbit IL-4 (rabbit, UniProt Q9MZR8 25-147, limits assumed); test: as above
T21 construct: also called rb IL-4
T21 sequence (looked up): T10 sequence (looked up)
Procedure: as §2

T4 sequence (P35225 35-146 limits assumed, form in doubt): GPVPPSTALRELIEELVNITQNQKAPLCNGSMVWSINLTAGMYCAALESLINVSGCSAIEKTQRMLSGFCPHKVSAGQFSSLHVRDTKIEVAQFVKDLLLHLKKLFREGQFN
T8 sequence (P35225 35-146 limits assumed): as the sequence (P35225 35-146 limits assumed, form in doubt) above
native human IL-13, sequence (P35225 35-146 limits assumed): as the sequence (P35225 35-146 limits assumed, form in doubt) above
T6 sequence (Q0PW92 entry or part of it limits assumed): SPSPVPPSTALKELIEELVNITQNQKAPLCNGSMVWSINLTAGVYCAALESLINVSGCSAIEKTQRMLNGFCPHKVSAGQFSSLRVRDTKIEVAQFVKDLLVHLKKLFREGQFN
T1 sequence (Q0PW92 entry or part of it limits assumed): as above

binding result [1]: binds
binding result [2]: no binding
binding result [3]: no binding
CD23: Fold bioactivity relative to IL13-0001 [4]: 1 fold
CD23: Fold bioactivity relative to IL13-1307 [4]: 29.1 fold
CD23 IC50 [pM] [4]: 10.5 pM
pSTAT6: Fold bioactivity relative to IL13-0001 [4]: 1 fold
pSTAT6: Fold bioactivity relative to IL13-1307 [4]: 1.5 fold
pSTAT6 IC50 [pM] [4]: 92 pM
CD23: Fold versus IL13-0001 [5]: 1 fold
CD23 IC50 [pM] Ave. n = 2 [5]: 6 pM
Kd [6]: 57.7 pM
B1: IL13-0001 (antibody, human IgG1, kappa, V domains shown)
VH: EVQLVESGGGLVQPGGSLRLSCAASGFTFSSYAMSWVRQAPGKGLEWVASISSGDTTYYPDSVKGRFTISRDNAKNSLYLQMNSLRAEDTAVYYCARNEGYYFGLTLWGQGTLVTVSS
VL: DIQMTQSPSSLSASVGDRVTITCKASESVDHFGWSLVHWYQQKPGKAPKLLIYRASNLESGVPSRFSGSGSGTDFTLTISSLQPEDFATYYCQQSNEDPWTFGGGTKVEIKR
notes: also called IL13433-0001; 1RVHC9-VLA4

binding result [7]: no binding
binding result [8]: binds
binding result [9]: no binding
IC50 (median), IL-13 induced CD23 expression on human monocytes [10]: 4.38 pM
IC50 (median) for STAT6 Phosphorylation in gated B Cells, human whole blood [11]: 66.5 pM
IC50 (median) for STAT6 Phosphorylation in gated Monocytes, human whole blood [11]: 525 pM
IC50 (median), Monocyte CD23 expression [12]: 10.5 pM
IC50 (median), STAT6 phosphorylation in HT-29 cells [12]: 92 pM
IC50 (median), STAT6 phosphorylation in HT-29 cells [13]: 79 pM
IL-13 induced CD23 upregulation (IC50), parental IgG [14]: 4.7 pM and 4.38 pM
B2: IL13-0001 (antibody, human IgG1, kappa, V domains shown)
VH: B1 VH
VL: B1 VL
notes: as for B1

IC50 for STAT6 Phosphorylation in gated B Cells, human whole blood [15]: 73 pM
IC50 for STAT6 Phosphorylation in gated Monocytes, human whole blood [15]: 100 pM
IC50 for STAT6 Phosphorylation in gated T cells, human whole blood [15]: 75 pM
binding result [16]: no binding
binding result [17]: no binding
binding result [18]: no binding
binding result [19]: binds
binding result [20]: no binding
binding result [21]: no binding
B3: IL4-1305 (antibody, human IgG1, kappa)
heavy: EVTLRESGPALVKPTQTLTLTCTFSGFSLSNFGEGLSWIRQPPGKGLEWLAHIYWDDDKRYNPSLKSRLTISKDTSRNQVVLTMTNMDPVDTATYYCARRETVFYWYFDVWGRGTPVTVSSASTKGPSVFPLAPSSKSTSGGTAALGCLVKDYFPEPVTVSWNSGALTSGVHTFPAVLQSSGLYSLSSVVTVPSSSLGTQTYICNVNHKPSNTKVDKKVEPKSCDKTHTCPPCPAPEAAGAPSVFLFPPKPKDTLMISRTPEVTCVVVDVSHEDPEVKFNWYVDGVEVHNAKTKPREEQYNSTYRVVSVLTVLHQDWLNGKEYKCKVSNKALPAPIEKTISKAKGQPREPQVYTLPPSREEMTKNQVSLTCLVKGFYPSDIAVEWESNGQPENNYKTTPPVLDSDGSFFLYSKLTVDKSRWQQGNVFSCSVMHEALHNHYTQKSLSLSPGK
light: DIQMTQSPSSLSASVGDRVTITCKASQSVDEDGDSYMNWYQQKPGKAPKLLIYAASNLESGVPSRFSGSGSGTDFTLTISSLQPEDFATYYCQQSNEDPPTFGGGTKVEIKRTVAAPSVFIFPPSDEQLKSGTASVVCLLNNFYPREAKVQWKVDNALQSGNSQESVTEQDSKDSTYSLSSTLTLSKADYEKHKVYACEVTHQGLSSPVTKSFNRGEC

binding result [22]: binds
binding result [23]: no binding
binding result [24]: no binding
binding result [25]: no binding
binding result [26]: no binding
binding result [27]: no binding
B4: IL4-1305 (antibody, IgG1)
VH: EVTLRESGPALVKPTQTLTLTCTFSGFSLSNFGEGLSWIRQPPGKGLEWLAHIYWDDDKRYNPSLKSRLTISKDTSRNQVVLTMTNMDPVDTATYYCARRETVFYWYFDVWGRGTPVTVSS
light: B3 light
notes: IgG1 effector-null
